Laboratory results from US8030017B2, “Thermostable luciferases and methods of production” (Promega Corporation, priority 1997, dated 2011).
Positions count from the first letter of the chain named. Names and notes keep the numbering of the source.

Assays:
[1] = Stability of luciferase activity in cell lysates at room temperature (with Triton X-100); format: physicochemical; settings: over 5 hours at room temperature
Procedure: Although the luminescence activity of LucPpl within colonies of E. coli appeared to be thermostable to above 60° C., in lysates these luciferases had relatively low stability. They were particularly unstable in the presence of Triton X-100 detergent. When lysates are prepared containing the commonly used firefly luciferase, the enzyme retains greater than 90% activity over 5 hours at room temperature. In contrast, the activity of the LucPpl luciferases would decrease several fold over the same period.
The thermostability of the mutant luciferases in cell lysates was compared at room temperature (FIG. 63). Dilute lysates were buffered at pH 7.5 and contained 1% Triton X-100; typical conditions for lysates of mammalian cells.

[2] = Retention of luminescence activity at pH 4.5 and 48° C.; format: physicochemical; settings: for thermostability relative to Luc90-1B5: pH 4.5 and 48° C.; for half-life: pH 4.5 and 48° C. (FIG. 54B)
Procedure: Three populations of random mutants were produced using clone Luc90-1B5 as a template. These three populations were screened on the robot as experiments 114, 115, and 117. […] These screening conditions were biased to select clones that have increased retention of luminescence activity over time at pH 4.5 at 48° C. and increased luminescence activity when assayed at pH 7.1 with 10 μM ATP. Seventeen clones from experiment 114, seven clones from experiment 115, and ten clones from experiment 116 were shuffled together using sPCR and selected mutants from this screen were run on the robot as experiment 117. Eighteen clones were selected from experiment 117.

[3] = Assay to detect resistance to luciferase inhibitor (luciferin breakdown products); format: biochemical; settings: luciferin degradation products (FIG. 61)
Procedure: A 10 mM stock solution of luciferin is incubated at 50° C. in 50 mM HEPES, pH 7.8, to accelerate the production of luciferin breakdown products. At different time points an aliquot is removed and then placed at −20° C. After incubation is complete, assay reagent (100 μM Luciferin, 1 μM ATP, 50 mM HEPES, pH 7.8 and 8 mM MgSO4) is prepared with luciferin from each of the different time points and a diluted lysate is then assayed with each assay reagent.
The lysate is prepared as follows. Overnight cultures of clones to be tested are prepared in LB supplemented with 100 μg/ml AMP. The cultures are diluted 1:10 in M-9 minimal media supplemented with 1 mM IPTG, 100 μg/ml AMP and grown for 3 hours at 30° C. Forty-five μl of cells is mixed with 20 μl of Buffer A and frozen. The mixture is thawed, 175 μl of Buffer B added, and the resulting mixture diluted 1:10 in Buffer C. A regression of luminescence versus time of luciferin incubation is then calculated, and from this graph half-life is extrapolated. A longer half-life means that the mutant being tested is more resistant to luciferin breakdown products.

[4] = Thermostability (half-life, retained activity) of luciferases incubated in aqueous solution at different temperatures; format: physicochemical; settings: purified enzyme
Text: As defined herein, a “thermostable” enzyme, e.g., a luciferase, or an enzyme which has “thermostability”, is an enzyme which under certain conditions, e.g., at certain temperature, in aqueous solution and/or for certain periods of time, has an increased retention of activity relative to a reference enzyme. For example, for a thermostable luciferase, a reference luciferase may be native wild-type luciferase or recombinant wild-type luciferase. Preferably, for beetle luciferases, the activity is luminescence under conditions of saturation with luciferin and ATP. One measure of thermostability of an enzyme is the half-life of the enzyme in an aqueous solution (the time over which 50% of the activity is lost) at a stated temperature.
(§1) Protein purification: Four mutants that are described herein (Luc[T249M], Luc49-7C6, Luc78-0B10, and Luc90-1B5) were purified using a previously published procedure (Hastings et al., 1996).
[…] Enzyme stability was determined from diluted proteins incubated at different temperatures, and aliquots were removed at different time points. A linear regression of the natural log of the luminescence and time was calculated. Half-life was calculated as the 1n(0.5)/slope of the regression.

[5] = Michaelis-Menten constant for luciferin of purified mutants; format: biochemical; settings: purified enzyme
Text: (§2) Substrate binding was screened by measuring an apparent composite Km (see Example 2) for luciferin and ATP. […] The Km for luciferin rose while the Km for ATP declined (Table 3). The reason for this change is unknown, although it can be speculated that more efficient release of oxyluciferin or luciferin inhibitors could lead to more rapid enzyme turnover.
as §1

[6] = Michaelis-Menten constant for ATP of purified mutants; format: biochemical; settings: purified enzyme
Text: as §2, §1

colonies of E. coli = assay: In vivo luminescence of recombinant colonies of E. coli (visual screen); format: cell-based
Text: Five to seven nitrocellulose disks having 200-500 colonies per disk (1000-3500 colonies total) are screened per 2 microplates (176 clones) (Wood and DeLuca, 1987). The clones are screened at high temperatures using standard screening conditions.
Screening method: In the qualitative visual screen, colonies were selected only for their ability to sustain relatively bright luminescence. The thermal stability of the luciferase within the colonies of E. coli was progressively challenged in successive rounds of evolution by increasing the temperature of the screen. The selected colonies were inoculated into wells of 96-well plates each containing 200 μl of growth medium.
JM109 clones (from a transformation reaction) are plated onto nitrocellulose filters placed on LB amp plates at a screening density of about 500 colonies per plate.
The nitrocellulose filter is lifted on one side and 500 μl of 10 mM IPTG is added to each of the plates. The filter is then placed back onto the plate to allow diffusion of the IPTG into the colonies containing the different mutant luciferase genes. The plates are then incubated for about 4 hours at room temperature.
One (1) ml of a solution contains 1 mM luciferin and 100 mM sodium citrate is pipetted onto a slide warmer that is set at 50° C. […]

[7] = Robotic thermostability screen of LucPpl mutants: decrease of activity over 10 hours at screening temperature; format: physicochemical
Procedure: “Enzyme stability” was determined by the rate of activity loss from cell lysates over 10 hours. In successive rounds of evolution the incubation temperature of the lysates was increased.
To prepare luciferases having certain performance, a method for in vitro evolution of enzyme function, as described above, was employed. Briefly described, the method is a recursive process of generating random mutations and screening for desirable properties. It was originally developed primarily to increase the thermostability of luciferases, although other enzymological characteristics are also subject to optimization by the screening criteria. A slightly different strategy was used to achieve the properties described above since two related luciferases needed to be optimized concomitantly.
The luciferases from P. plagiophthalamus have 13 cysteines, which are potentially sensitive to oxidation. This is in contrast to the commonly used firefly luciferase, which has only 4 cysteines. To remove any cysteines that may limit enzyme stability, oligonucleotide-directed mutagenesis was used to randomize the cysteine codons. Three sets of oligonucleotides were used: non-conserved cysteines in regions of low sequence homology (positions 69, 114, 160, 194, 335, and 460), non-conserved cysteines in regions of higher sequence homology (positions 127, 213, 310, and 311), and highly conserved cysteines (positions 60, 80, and 388). […]
The random mutagenesis process was repeated using the best clone from the previous cycle of mutagenesis (Luc53-0G01). […] The discrepancy in measured activity of Luc53-0G01 in this cycle of mutagenesis compared to the previous cycle may be due to changes in the assay procedure and recalibration of the incubator temperature. It should be noted that the recorded thermostabilities from each stage of mutagenesis are calculated from robotic data using abbreviated assay procedures. The data are intended to indicate the relative stabilities of enzyme mutants when assayed in the same screen, rather than providing an accurate quantitation of thermostability.

For “firefly luciferase: the commonly used firefly luciferase”, the “activity retained in lysates” value [1] was “greater than 90%”.

B1: Luc133-1B2: mutant luciferase, SEQ ID NO:44 (protein)
chain: MADKNILYGPEPFYPLEDGTAGEQMFDALSRYADIPGCIALTNAHTKENVLYEEFLKLSCRLAESFKKYGLKQNDTIAVCSENSLQFFLPVIASLYLGIIVAPVNDKYIERELIHSLGIVKPRIVFCSKNTFQKVLNVKSKLKSIETIIILDLNDDLGGYQCLNNFISQNSDSNLDVKKFKPYSFNRDDQVALIMFSSGTTGLPKGVMLTHKNIVARFSIAKDPTFGNAINPTSAILTVIPFHHGFGMMTTLGYFTCGFRVVLMHTFEEKLFLQSLQDYKVESTLLVPTLMAFLAKSALVEKYDLSHLKEIASGGAPLSKEIGEMVKKRFKLNFVRQGYGLTETTSAVLITPKGDAKPGSTGKIVPFHAVKVVDPTTGKILGPNEPGELYFKGPMIMKGYYNNEEATKAIIDNDGWLRSGDIAYYDNDGHFYIVDRLKSLIKYKGYQVAPAEIEGILLQHPYIVDAGVTGIPDEAAGELPAAGVVVQTGKYLNEQIVQDYVASQVSTAKWLRGGVIFLDEIPKGSTGKIDRKVLRQMLEKHTNG
modifications: Mutant luciferase
In the case of B1, the “thermostability relative to Luc90-1B5” value [2] is reported as “increased thermostability”, the half-life [2] is reported as “about 20 minutes” and the “resistance to inhibitor relative to Luc90-1B5” value [3] is reported as “increased resistance to inhibitor”.

B2: Luc146-1H2: mutant luciferase, SEQ ID NO:45 (protein)
chain: B1 chain with D34A, D155E, L193S, F367L, I516K
modifications: Mutant luciferase
With B2 the “thermostability relative to Luc90-1B5” value [2] was “increased thermostability”, the half-life [2] was “about 62 minutes” and the “resistance to inhibitor relative to Luc90-1B5” value [3] was “increased resistance to inhibitor”.

B3: LucPpe2[T249M]: LucPpe2 firefly luciferase (Photuris pennsylvanica) with mutation Thr to Met at residue 249, SEQ ID NO:25 (protein)
chain: MEDKNILYGPEPFYPLADGTAGEQMFYALSRYADISGCIALTNAHTKENVLYEEFLKLSCRLAESFKKYGLKQNDTIAVCSENGLQFFLPLIASLYLGIIAAPVSDKYIERELIHSLGIVKPRIIFCSKNTFQKVLNVKSKLKYVETIIILDLNEDLGGYQCLNNFISQNSDINLDVKKFKPNSFNRDDQVALVMFSSGTTGVSKGVMLTHKNIVARFSHCKDPTFGNAINPTTAILTVIPFHHGFGMMTTLGYFTCGFRVALMHTFEEKLFLQSLQDYKVESTLLVPTLMAFFAKSALVEKYDLSHLKEIASGGAPLSKEIGEMVKKRFKLNFVRQGYGLTETTSAVLITPDTDVRPGSTGKIVPFHAVKVVDPTTGKILGPNETGELYFKGDMIMKGYYNNEEATKAIINKDGWLRSGDIAYYDNDGHFYIVDRLKSLIKYKGYQVAPAEIEGILLQHPYIVDAGVTGIPDEAAGELPAAGVVVQTGKYLNEQIVQNFVSSQVSTAKWLRGGVKFLDEIPKGSTGKIDRKVLRQMFEKHKSKL
modifications: Mutant luciferase
For B3, the “Thermostability Of Luciferase Activity (Half-Life In Hours)” value (“Thermostability Of Luciferase Activity” below) ([4]; 37° C.) was 35.4 min, the “Thermostability Of Luciferase Activity” value ([4]; 50° C.) was 0.6 min and the “Thermostability Of Luciferase Activity” value ([4]; Room Temperature (about 25° C.)) was 6600 min. The Km [5] was 0.32 µM, the Km [6] was 18 µM and the “light produced in vivo when expressed in E. coli, relative to LucPpe2” value (colonies of E. coli) was “approximately 5 fold”.

B4: Luc30-4B02: LucPplYG mutant, first cycle of random mutagenesis (protein)
chain: MMKREKNVIYGPEPLHPLEDLTAGEMLFRALRKHSHLPQALVDVVGDESLSYKEFFEATVLLAQSLHNCGYKMNDVVSICAENNTRFFIPVIAAWYIGMIVAPVNESYIPDELCKVMGISKPQIVFTTKNILNKVLEVQSRTNFIKRIIVLDTVENIHGCESLPNFISRYSDGNIANFKPLHFDPVEQVAAILCSSGTTGLPKGVMQTHQNICVRLIHALDPRAGTQLIPGVTVLVYLPFFHAFGFSITLGYFMVGLRVIMSRRFDPEAFLKAIQDYEVRSVINVPSVILFLSKSPLVDKYDLSSLRELCCGAAPLAKEVAEVAAKRLNLPGIRCGFGLTESTSANIHSLRDEFKPGSLGRVTPLMAAKIADRETGKALGPNQVGELCIKGPMVSKGYVNNVEATKEAIDDDGWLHSGDFGYYDEDEHFYVVDRYKELIKYKGSQVAPAELEEILLKNPCIRDVAVVGIPDLEAGELPSAFVVKQPGKEITAKEVYDYLAERVSHTKYLRGGVRFVDSIPRNVTGKITRKELLKQLLEKAGG
modifications: Mutant luciferase
notes: LucPplYG mutant, first cycle of random mutagenesis
With B4 the “decrease of activity over 10 hours” value ([7]; 41° C.) was 63 fold and the decrease of activity ([7]; 42° C.) was “greater than 2000 fold”.
